Our source for the maximum inhibition of Munc18/Syntaxin-1 binding values is patent publication US20210032287A1.

This test concerns the target Syntaxin-1 (GST-tagged) (Homo sapiens (Human)) (UniProt Q16623). In words: ELISA-based competition assay; peptide (0.1, 0.5, 1 mM) preincubated with GST-Syntaxin-1 (10 or 5 nM), added to His-Munc18 (100 nM) on a nickel plate; anti-GST detection, A450. (ELISA stands for enzyme-linked immunosorbent assay.)

Chain of Syntaxin-1 (GST-tagged) (Homo sapiens (Human)) (Q16623 1-261 limits assumed): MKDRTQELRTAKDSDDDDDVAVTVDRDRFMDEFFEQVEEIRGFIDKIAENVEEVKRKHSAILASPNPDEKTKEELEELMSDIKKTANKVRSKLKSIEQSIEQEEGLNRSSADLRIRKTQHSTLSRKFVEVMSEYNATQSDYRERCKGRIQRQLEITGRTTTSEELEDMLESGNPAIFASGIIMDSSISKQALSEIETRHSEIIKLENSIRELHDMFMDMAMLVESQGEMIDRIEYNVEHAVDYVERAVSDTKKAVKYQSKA

Take Ac-HILDMW-NH2: the maximum inhibition of Munc18/Syntaxin-1 binding was determined as 67%.
In turn, “Ac-His-Ala-Leu-Arg-Phe-Trp-NH2 (peptide)” gave a maximum inhibition of Munc18/Syntaxin-1 binding of 37%.
